Test results published in patent US20240400621A1, “PEPTIDES FOR METABOLIC SYNDROME” (ALPARIS, S.A. de C.V., priority 2021, published 2024).

Columns and labels:
[1] = target: T1, hTLR2 (Homo sapiens, UniProt O60603); test: hTLR2 stimulation in HEK-Blue hTLR2 cells (NF-κβ/SEAP reporter, QUANTI-Blue); format: cell-based
T1 construct: expressed in transfected cells; host or cells: HEK-Blue hTLR2 cells
Procedure: The analysis of the biological activity of the protein of SEQ ID NO. 1 was performed via an in vitro Toll-like receptors (TLRs) recognition assay. The HEK-Blue hTLR2 cell line expressing the hTLR2 receptor was used, whose stimulation activates the NF-Kβ factor, which in turn induces the production of the reporter protein, secreted embryonic alkaline phosphatase (SEAP). The SEAP levels are quantified by a colorimetric method with the reagent QUANTI-Blue and correspond to hTLR2 stimulation levels. The HEK-Blue hTLR2 cell line was thawed and propagated to make a master cell bank. From this bank, a vial was thawed to check the correct growth of the cell line and the absence of mycoplasma contamination. The cells of the thawed vial were propagated to make a working cell bank and continue the subcultures to mount the activity assay of SEQ ID NO. 1. This consisted of a series of tests in which the cellular response was evaluated with different molecules to determine the most suitable conditions for the assay.
The determined EC50 for SEQ ID NO. 1 was 1147±211 ng/ml (35.1±6.4 nM).
The in vitro biological activity of SEQ ID NO:2, SEQ ID NO:3, SEQ ID NO:4, SEQ ID NO: 8, SEQ ID NO:9, SEQ ID NO: 10, SEQ ID NO:11, SEQ ID NO: 12, SEQ ID NO: 13, SEQ ID NO: 14, SEQ ID NO: 15, and SEQ ID NO:16 was tested via the stimulation of hTLR2 in the cultures of HEK-Blue hTLR2 cells in 96-well plates for 24 h. After collecting the supernatant, the plate was incubated with QUANTI-Blue at 37° C. for 1 h, and absorbance was measured at 620 nm.
To determine the EC50, the absorbance was plotted against the logarithm of protein concentration, and the data was adjusted to a dose-response sigmoidal ligand binding model with 4 parameters. The cell culture medium was used as a negative control, and PAM (synthetic triacylated lipopeptide (Pam3CSK4)) was used as a positive control.

[2] = test system: insulin; test: Insulin levels (secretion in response to glucose) in mice fed a high-fat diet; format: in vivo, mice (C57BL/6JN); conditions: 12 weeks; versus DAG group
Procedure: (§1) For all the in vivo testing, male mice of the C57BL/6JN strain between 8 to 10 weeks of age were used, housed in groups of 3 to 5 mice per cage with food and water ad libitum in ventilated racks, and whose microbiota were unified for 4 weeks.
(§2) The mice received either 200 μL of a phosphate buffer solution (PBS) at pH 7.5 (as a vehicle), or 200 μL of the PBS solution, with each of the intragastric treatments daily for 12 weeks. They were fed either a Normal Diet (DN, Harlan, Teklad 2018SX) with 18% of the calories coming from fat, or a High-Fat Diet (DAG, Research Diets, D12491), with 60% of the calories coming from fat.
(§3) All the mice were randomly divided into five experimental groups in order to study the effect of SEQ ID NO: 3 and SEQ ID NO: 2 correctly: • Group 1—Mice with DN that received 200 μl of PBS intragastrically. • Group 2—Mice with DAG that received 200 μl of PBS intragastrically. • Group 3—Mice with DAG that received 200 μl of PBS with SEQ ID NO: 3 intragastrically at a dose of: 2.5 μg/mouse. • Group 4—Mice with DAG that received 200 μl of PBS with SEQ ID NO: 2 intragastrically at a dose of 0.6 μg/mouse (high dose). • Group 5—Mice with DAG that received 200 μl of PBS with SEQ ID NO: 2 intragastrically at a dose of 0.2 μg/mouse (low dose).
This means that the peptide SEQ ID NO: 3 improves insulin sensitivity, preventing insulin resistance from developing.

[3] = test system: adipose tissue; test: Cellular infiltrate / inflammatory process in adipose tissue of mice fed a high-fat diet; format: in vivo, mice (C57BL/6JN)
Procedure: as §1, §2, §3
(§4) To determine the effect of the peptides SEQ ID NO: 2 and SEQ ID NO: 3 in attenuating the inflammatory process in adipose tissue, the cellular infiltrate of the adipose tissue of the mice was quantified after they had been fed DAG.

[4] = test system: IL-1B; test: Circulating IL-1B levels in mice fed a high-fat diet; format: in vivo, mice (C57BL/6JN); conditions: 12 weeks; versus DAG; including SEQ ID NO: 2 at low doses
Procedure: as §1
as §2, with “fat. […]” for “fat.”
as §4

[5] = test system: IL-6; test: IL-6 levels in mice fed a high-fat diet; format: in vivo, mice (C57BL/6JN); conditions: 12 weeks; animals fed DAG
Procedure: as §1, §2, §3

[6] = test system: leptin; test: Leptin levels in mice fed a high-fat diet; format: in vivo, mice (C57BL/6JN); conditions: 12 weeks; compared to mice fed only DAG
Procedure: as §1, §2
as §3, with “(low dose). […]” for “(low dose).”

[7] = test system: adiponectin; test: Adiponectin levels in mice fed a high-fat diet; format: in vivo, mice (C57BL/6JN); conditions: 12 weeks; fall induced by DAG
Procedure: as §1, §2
as §3, with “(low dose). […]” for “(low dose).”

[8] = Aggregation during ultrafiltration / buffer change; format: physicochemical
Description: The protein of SEQ ID NO. 1, expressed in recombinant form in this invention, contains a tag of six residues of histidine at the carboxyl terminal end, allowing it to be purified by immobilized metal cation affinity chromatography (IMAC). Purification was initially evaluated with the soluble fractions of the two strains that were used for recombinant production, obtained by enzymatic lysis and sonication. The first approach with the Ni-NTA Agarose resin allowed for the recovery of 6% of the SEQ ID NO. 1 with a purity of 50-80%. An FPLC Ákta Prime chromatographic system and an XK16/20 column packed with 13 mL of Chelating Sepharose Fast Flow-Ni^+2 resin were used for purification. A minimum imidazole concentration of 30 mM was defined in both the sample to be injected and the equilibrium buffer. Elution was performed with 500 mM imidazole at 6.5 mL/min, resulting in a minimum recovery of 80% of SEQ ID No. 1 with 82% purity. The ultrafiltration of the tangential flow of SEQ ID NO. 1 during the chromatography stage, in order to concentrate and change the buffer, negatively impacted protein quality. However, the dialysis of EQ ID NO.
However, the aggregation of SEQ ID NO. […] This was corroborated by the SDSPAGE analysis, in which the remaining protein in the soluble fraction presented fragments of lower molecular weight than that of SEQ ID NO. 1, but greater than 25 kDa. On the other hand, the precipitate turned out to be denatured SEQ ID NO. 1, but not degraded.
Finally, SEQ ID NO. 4 and SEQ ID NO.

T1 sequence (O60603 21-784): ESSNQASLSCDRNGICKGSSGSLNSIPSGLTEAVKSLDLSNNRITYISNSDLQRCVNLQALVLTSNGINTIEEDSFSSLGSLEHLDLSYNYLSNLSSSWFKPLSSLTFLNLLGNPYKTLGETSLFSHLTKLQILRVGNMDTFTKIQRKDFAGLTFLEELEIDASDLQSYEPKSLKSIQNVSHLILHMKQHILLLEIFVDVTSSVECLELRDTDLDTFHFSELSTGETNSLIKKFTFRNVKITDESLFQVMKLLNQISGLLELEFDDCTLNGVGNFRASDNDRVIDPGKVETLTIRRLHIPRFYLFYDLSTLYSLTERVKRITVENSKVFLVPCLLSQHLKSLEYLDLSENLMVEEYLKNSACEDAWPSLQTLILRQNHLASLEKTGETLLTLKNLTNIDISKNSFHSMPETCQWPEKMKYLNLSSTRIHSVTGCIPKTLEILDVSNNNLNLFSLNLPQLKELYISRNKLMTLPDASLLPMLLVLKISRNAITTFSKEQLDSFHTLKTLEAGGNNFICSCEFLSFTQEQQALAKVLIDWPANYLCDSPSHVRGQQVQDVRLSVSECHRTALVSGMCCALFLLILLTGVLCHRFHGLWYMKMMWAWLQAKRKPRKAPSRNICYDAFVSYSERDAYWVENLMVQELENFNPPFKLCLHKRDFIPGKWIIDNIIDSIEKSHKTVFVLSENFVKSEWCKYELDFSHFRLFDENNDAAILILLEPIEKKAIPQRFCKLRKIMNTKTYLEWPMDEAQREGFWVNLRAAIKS

B1: peptide SEQ ID NO: 3 (carboxyl terminal domain of SEQ ID NO: 1) (peptide)
chain: QLPIETPANNPEESDEADQAPWTPMPLEIAFQGDRESVLKAMNAITGMQDYLFTVNSIRIRNERMMPPPIANPAAAKPAAAQPATGAASLTPADEAAAPAAPAIQQVIKPYMGKEQVFVQVSLNLVHFNQPKAQEPSED
concentration from which hTLR2 is (significantly) stimulated ([1]; HEK-Blue hTLR2 cells, 24 h): 8 nM | relative response compared to PAM ([1]; from 229 nM, PAM (Pam3CSK4) positive control): 107% | insulin secretion in response to glucose administration [2]: statistically significant reduction in insulin secretion | cellular infiltrate of adipose tissue ([3]; 12 weeks, versus DAG group): prevented the increase in cellular infiltrate induced by DAG | inflammatory process in adipose tissue ([3]; SEQ ID NO:2 in high or low doses): attenuate the inflammatory process in adipose tissue | circulating levels of IL-1B [4]: prevented the increase in the circulating levels of IL-1B | IL-6 levels [5]: dramatic decrease in IL-6 levels | leptin secretion [6]: decrease in leptin secretion | adiponectin in circulation [7]: tendency to prevent a fall of adiponectin | aggregation in ultrafiltration operations [8]: no visible aggregation
